According to patent US20220257784A1 (Bicycle, published 2022):
Starred links: 1 amine or outer side, 2 acyl side, 3 side chain; linkers in the order of their positions; H or OH if unused. Positions of bridges follow the written chain, without caps; N, C: chain ends. Non-standard residues stand in square brackets, D forms with d. No end group written: not given here. TATA = O=C(CC[*:1])N1CN(C(=O)CC[*:2])CN(C(=O)CC[*:3])C1; Ala(4-thiazolyl) = N[C@@H](Cc1cscn1)C(=O)O; Dip = N[C@H](C(=O)O)C(c1ccccc1)c1ccccc1; 1Nal = N[C@@H](Cc1cccc2ccccc12)C(=O)O; His(τ-Me) = Cn1cnc(C[C@H](N)C(=O)O)c1; d1Nal = N[C@H](Cc1cccc2ccccc12)C(=O)O; Hyp = O=C(O)[C@@H]1C[C@@H](O)CN1; hArg = N=C(N)NCCCC[C@H](N)C(=O)O; 2Thi = N[C@@H](Cc1cccs1)C(=O)O; 3Thi = N[C@@H](Cc1ccsc1)C(=O)O; Aad = N[C@@H](CCCC(=O)O)C(=O)O; His3Me = N3-methyl-L-histidine; Cysteamide = C(CS[*:3])N[*:1]; Cba = N[C@@H](CC1CCC1)C(=O)O; dNle = CCCC[C@@H](N)C(=O)O; NMeA = CN[C@@H](C)C(=O)O; Nle = CCCC[C@H](N)C(=O)O; Mpa = O=C(O)CCS

How the values were obtained:
human EphA2 [1] = target: T1, human EphA2 (human, UniProt P29317 25-534, limits assumed); assay: fluorescence polarisation competition with tracer BCY90, human EphA2, mean of 6
T1 construct: also called Eph receptor tyrosine kinase A2
Procedure: (§1) Peptides without a fluorescent tag were tested in competition with a peptide with a fluorescent tag and a known Kd.
(§2) Peptides were diluted to an appropriate concentration in assay buffer as described in the direct binding assay with a maximum of 5% DMSO, then serially diluted 1 in 2. […] Measurements were conducted, however the gain was determined prior to the first measurement. Data analysis was in Systat Sigmaplot version 12.0 where the mP values were fit to a user defined cubic equation to generate a Ki value: […]

human EphA2 [2] = target: T1, human EphA2; assay: fluorescence polarisation competition with tracer BCY90, human EphA2, mean of 10
Procedure: as §1, §2

human EphA2 [3] = target: T1, human EphA2; assay: fluorescence polarisation competition with tracer BCY90, human EphA2, mean of 8
Procedure: as §1, §2

human EphA2 [4] = target: T1, human EphA2; assay: fluorescence polarisation competition with tracer BCY90, human EphA2, mean of 38
Procedure: as §1, §2

T1 sequence (P29317 25-534 limits assumed): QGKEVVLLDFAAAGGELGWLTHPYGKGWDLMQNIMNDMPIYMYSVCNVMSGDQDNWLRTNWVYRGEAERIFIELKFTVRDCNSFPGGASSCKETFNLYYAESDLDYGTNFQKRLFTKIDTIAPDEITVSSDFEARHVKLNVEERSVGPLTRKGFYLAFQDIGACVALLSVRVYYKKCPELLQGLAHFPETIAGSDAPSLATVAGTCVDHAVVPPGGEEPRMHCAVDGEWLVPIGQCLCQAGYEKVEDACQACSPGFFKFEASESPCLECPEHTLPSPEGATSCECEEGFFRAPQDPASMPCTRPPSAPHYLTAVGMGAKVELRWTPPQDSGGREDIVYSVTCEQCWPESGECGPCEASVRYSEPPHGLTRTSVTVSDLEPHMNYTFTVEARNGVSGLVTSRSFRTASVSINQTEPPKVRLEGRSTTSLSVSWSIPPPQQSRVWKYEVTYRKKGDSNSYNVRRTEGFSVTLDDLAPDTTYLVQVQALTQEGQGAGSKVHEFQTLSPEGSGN

Binder | Ki (human EphA2 [1]) [nM] | other results
C[Hyp]LVNPLCLEP[dD]WTC[dA]-NH2 (linker 1-8-15 via TATA, Bicyclic peptide cyclised with TATA) [BCY12861] | 21.7 | –
A[hArg]DC[Hyp][Cba]VNPLCLHP[dD]W[hArg]C-NH2 (linker 4-11-18 via TATA, Bicyclic peptide cyclised with TATA) [BCY12862] | 1.22 | –
A[hArg]DC[Hyp][Cba]VNPLCLEP[dD]WTC-NH2 (linker 4-11-18 via TATA, Bicyclic peptide cyclised with TATA) [BCY12863] | 5.84 | –
[dA][hArg]DC[Hyp][Cba]VNPLCLEP[dD]WTC[dA]-NH2 (linker 4-11-18 via TATA, Bicyclic peptide cyclised with TATA) [BCY12864] | 9.29 | –
[dA][hArg]DC[Hyp][Cba]VNPLCLEP[dA]WTC[dA]-NH2 (linker 4-11-18 via TATA, Bicyclic peptide cyclised with TATA) [BCY13123] | 6.44 | –
C[Hyp][Cba]VNPLCL[Dip]P[dD]WTC[dA]-NH2 (linker 1-8-15 via TATA, Bicyclic peptide cyclised with TATA) [BCY12865] | 0.857 | –
A[hArg]DC[Hyp]LVNPLCL[Dip]P[dD]W[hArg]C-NH2 (linker 4-11-18 via TATA, Bicyclic peptide cyclised with TATA) [BCY12866] | – | Ki (human EphA2 [2]): 0.244 nM
A[hArg]DC[Hyp]LVNPLCLHP[d1Nal]W[hArg]C-NH2 (linker 4-11-18 via TATA, Bicyclic peptide cyclised with TATA) [BCY13116] | – | Ki (human EphA2 [3]): 1.13 nM
A[hArg]DC[Hyp]LVNPLCL[1Nal]P[dD]W[hArg]C-NH2 (linker 4-11-18 via TATA, Bicyclic peptide cyclised with TATA) [BCY13117] | – | Ki (human EphA2 [3]): 1.12 nM
A[hArg]DC[Hyp]LVNPLCLEP[d1Nal]WTC-NH2 (linker 4-11-18 via TATA, Bicyclic peptide cyclised with TATA) [BCY13118] | 5.42 | –
C[Hyp]LVNPLCL[1Nal]P[dD]WTC-NH2 (linker 1-8-15 via TATA, Bicyclic peptide cyclised with TATA) [BCY13119] | – | Ki (human EphA2 [3]): 2.64 nM
Ac-C[Hyp]LVNPLCL[Dip]P[dD]WTC[dK]-NH2 (linker 1-8-15 via TATA, Bicyclic peptide cyclised with TATA) [BCY13120] | 0.916 | –
[NMeA][hArg]DC[Hyp]LVNPLCLHP[dD]W[hArg]C-NH2 (linker 4-11-18 via TATA, Bicyclic peptide cyclised with TATA) [BCY13121] | 1.49 | –
[NMeA][hArg]DC[Hyp]LVNPLCLEP[dD]WTC-NH2 (linker 4-11-18 via TATA, Bicyclic peptide cyclised with TATA) [BCY13122] | – | Ki (human EphA2 [3]): 7.8 nM
[d1Nal][hArg]DC[Hyp][Cba]VNPLCLEP[dA]WTC[dA]-NH2 (linker 4-11-18 via TATA, Bicyclic peptide cyclised with TATA) [BCY13124] | 7.62 | –
[dA]EDC[Hyp]LVNPLCLEP[dD]WTC-NH2 (linker 4-11-18 via TATA, Bicyclic peptide cyclised with TATA) [BCY13126] | 25.3 | –
[dA][dA]DC[Hyp]LVNPLCLEP[dD]WTC-NH2 (linker 4-11-18 via TATA, Bicyclic peptide cyclised with TATA) [BCY13127] | 14.9 | –
ADC[Hyp]LVNPLCLEP[dD]WTC-NH2 (linker 3-10-17 via TATA, Bicyclic peptide cyclised with TATA) [BCY13128] | 16.1 | –
A[hArg]DC[Hyp][Aad]VNPLCLHP[dD]W[hArg]C-NH2 (linker 4-11-18 via TATA, Bicyclic peptide cyclised with TATA) [BCY13130] | 7.8 | –
A[hArg]DC[Hyp]LVNPLC[Aad]HP[dD]W[hArg]C-NH2 (linker 4-11-18 via TATA, Bicyclic peptide cyclised with TATA) [BCY13131] | 27.1 | –
A[hArg]DC[Hyp]LVNPLCLEP[dD]W[hArg]C-NH2 (linker 4-11-18 via TATA, Bicyclic peptide cyclised with TATA) [BCY12854] | 9.34 | –

Binder | Ki (human EphA2 [1]) [nM] | other results
A[hArg]DC[Hyp]LVNPLCLHP[dD]W[hArg]C-NH2 (linker 4-11-18 via TATA, Bicyclic peptide cyclised with TATA) [BCY9594] | – | Ki (human EphA2 [4]): 1.44 nM
A[hArg]DC[Hyp]LVNPLCLFP[dD]W[hArg]C-NH2 (linker 4-11-18 via TATA, Bicyclic peptide cyclised with TATA) [BCY13920] | 0.641 | –
A[hArg]DC[Hyp]LVNPLCLNP[dD]W[hArg]C-NH2 (linker 4-11-18 via TATA, Bicyclic peptide cyclised with TATA) [BCY14047] | 3.88 | –
A[hArg]DC[Hyp]LVNPLCLQP[dD]W[hArg]C-NH2 (linker 4-11-18 via TATA, Bicyclic peptide cyclised with TATA) [BCY14048] | 4.1 | –
A[hArg]DC[Hyp]LVNPLCL[Aad]P[dD]W[hArg]C-NH2 (linker 4-11-18 via TATA, Bicyclic peptide cyclised with TATA) [BCY13132] | 7.08 | –
A[hArg]DC[Hyp]LVNPLCLHP[dNle]W[hArg]C-NH2 (linker 4-11-18 via TATA, Bicyclic peptide cyclised with TATA) [BCY13134] | 1.16 | –
A[hArg]DC[Hyp]LVNPLCL[Nle]P[dD]W[hArg]C-NH2 (linker 4-11-18 via TATA, Bicyclic peptide cyclised with TATA) [BCY13135] | 0.894 | –
A[hArg]DC[Hyp]LVNPLCLHP[dD]W[hArg][Cysteamide] (linker (positions not given here) via TATA; not fully specified (bridges), Bicyclic peptide cyclised with TATA; the third reactive group is cysteamine in place of cysteine) [BCY13133] | 3.24 | –
Ac-C[Hyp]LVNPLCLHP[dD]W[hArg]CL[dH]G[dK]-NH2 (linker 1-8-15 via TATA, Bicyclic peptide cyclised with TATA) [BCY13125] | 1.83 | –
[Mpa][Hyp]LVNPLCL[Dip]P[dD]WTC[dK]-NH2 (linker (positions not given here) via TATA; not fully specified (bridges), Bicyclic peptide cyclised with TATA; the first reactive group is 3-mercaptopropionic acid in place of cysteine) [BCY13129] | 1.88 | –
A[hArg]DC[Hyp]LVNPLCL[His3Me]P[dD]W[hArg]C-NH2 (linker 4-11-18 via TATA, Bicyclic peptide cyclised with TATA) [BCY13917] | 1.72 | –
A[hArg]DC[Hyp]LVNPLCL[His(τ-Me)]P[dD]W[hArg]C-NH2 (linker 4-11-18 via TATA, Bicyclic peptide cyclised with TATA) [BCY13918] | 2.62 | –
A[hArg]DC[Hyp]LVNPLCL[Ala(4-thiazolyl)]P[dD]W[hArg]C-NH2 (linker 4-11-18 via TATA, Bicyclic peptide cyclised with TATA) [BCY13919] | 2.1 | –
A[hArg]DC[Hyp]LVNPLCLEP[dD]WTC-NH2 (linker 4-11-18 via TATA, Bicyclic peptide cyclised with TATA) [BCY12856] | – | Ki (human EphA2 [3]): 4.63 nM
A[hArg]DC[Hyp]LVNPLCLHP[dD]WTC-NH2 (linker 4-11-18 via TATA, Bicyclic peptide cyclised with TATA) [BCY12855] | 5.55 | –
A[hArg]DC[Hyp]LVNPLCLEP[dA]WTC-NH2 (linker 4-11-18 via TATA, Bicyclic peptide cyclised with TATA) [BCY12858] | 8.19 | –
A[hArg]DC[Hyp]LVNPLCL[2Thi]P[dD]W[hArg]C-NH2 (linker 4-11-18 via TATA, Bicyclic peptide cyclised with TATA) [BCY13922] | 1.14 | –
A[hArg]DC[Hyp]LVNPLCL[3Thi]P[dD]W[hArg]C-NH2 (linker 4-11-18 via TATA, Bicyclic peptide cyclised with TATA) [BCY13923] | 1.32 | –
A[hArg]DC[Hyp]LVNPLCLEP[dD]WTC[dA]-NH2 (linker 4-11-18 via TATA, Bicyclic peptide cyclised with TATA) [BCY12857] | 16 | –
A[hArg]DC[Hyp]LVNPLCL[Dip]P[dD]WTC-NH2 (linker 4-11-18 via TATA, Bicyclic peptide cyclised with TATA) [BCY12859] | – | Ki (human EphA2 [3]): 0.723 nM
C[Hyp]LVNPLCL[Dip]P[dD]WTC-NH2 (linker 1-8-15 via TATA, Bicyclic peptide cyclised with TATA) [BCY12860] | 0.66 | –
